Experimental data from article PMC2248197.
Values joined by “and” are separate entries in the source; they are usually repeats but may differ in a detail not shown here. Equal values may be shown once.

Molecular target: Xop411 p09, major capsid subunit (major coat protein) (Xanthomonas oryzae phage Xop411)
Test: SDS-PAGE of virion proteins with LC-MS/MS of the bands

In the case of “Xop411 p09, major capsid subunit (major coat protein) (natural protein)”, the stoichiometry N was 2 subunits and 6 subunits.
